Reference: paper PMC3813961 (Biochemistry, 2013)
Read-outs that look alike come from different tables or passages of the source. One block for each molecule: values may come before it.

How the values were obtained:
[1] = target: EL222 L120K variant (Erythrobacter litoralis HTCC2594); experiment: SEC-MALS
[2] = target: EL222 S137Y variant (Erythrobacter litoralis HTCC2594); experiment: SEC-MALS
[3] = target: EL222 V41I:L52I:A79Q:V121I variant (AQTrip) (Erythrobacter litoralis HTCC2594); experiment: SEC-MALS
[4] = target: EL222 V41I:L52I:A79Q:V121I variant (AQTrip) (Erythrobacter litoralis HTCC2594); experiment: SEC-MALS; remark: listed apart in the source
[5] = target: EL222 V41I:L52I:A79Q:V121I variant (AQTrip) (Erythrobacter litoralis HTCC2594); experiment: SEC-MALS; remark: listed apart in the source
native gel or EMSA = target: the molecule itself; experiment: native gel or EMSA

stoichiometry N [1]: 2
Molecule: EL222 L120K variant (natural protein)

stoichiometry N [2]: 2
Molecule: EL222 S137Y variant (natural protein)

stoichiometry N [3]: 2
stoichiometry N [4]: 4
stoichiometry N [5]: 2
Molecule: EL222 V41I:L52I:A79Q:V121I variant (AQTrip) (natural protein)

B1: His6-Gβ1-tagged wild-type EL222 (natural protein, Erythrobacter litoralis HTCC2594, UniProt Q2NB98 1-225, looked up)
chain: MLDMGQDRPIDGSGAPGADDTRVEVQPPAQWVLDLIEASPIASVVSDPRLADNPLIAINQAFTDLTGYSEEECVGRNCRFLAGSGTEPWLTDKIRQGVREHKPVLVEILNYKKDGTPFRNAVLVAPIYDDDDELLYFLGSQVEVDDDQPNMGMARRERAAEMLKTLSPRQLEVTTLVASGLRNKEVAARLGLSEKTVKMHRGLVMEKLNLKTSADLVRIAVEAGI
stoichiometry N (native gel or EMSA): 2
